Source: paper PMC2871463 (The Journal of Biological Chemistry, 2010)
Values belong to the binder of their own block, whether it stands above or below them.

Key:
[1] = target: T1, bone morphogenetic protein-1 (BMP-1), recombinant human (human, UniProt P13497-2 121-730); assay: SPR
T1 sequence (looked up): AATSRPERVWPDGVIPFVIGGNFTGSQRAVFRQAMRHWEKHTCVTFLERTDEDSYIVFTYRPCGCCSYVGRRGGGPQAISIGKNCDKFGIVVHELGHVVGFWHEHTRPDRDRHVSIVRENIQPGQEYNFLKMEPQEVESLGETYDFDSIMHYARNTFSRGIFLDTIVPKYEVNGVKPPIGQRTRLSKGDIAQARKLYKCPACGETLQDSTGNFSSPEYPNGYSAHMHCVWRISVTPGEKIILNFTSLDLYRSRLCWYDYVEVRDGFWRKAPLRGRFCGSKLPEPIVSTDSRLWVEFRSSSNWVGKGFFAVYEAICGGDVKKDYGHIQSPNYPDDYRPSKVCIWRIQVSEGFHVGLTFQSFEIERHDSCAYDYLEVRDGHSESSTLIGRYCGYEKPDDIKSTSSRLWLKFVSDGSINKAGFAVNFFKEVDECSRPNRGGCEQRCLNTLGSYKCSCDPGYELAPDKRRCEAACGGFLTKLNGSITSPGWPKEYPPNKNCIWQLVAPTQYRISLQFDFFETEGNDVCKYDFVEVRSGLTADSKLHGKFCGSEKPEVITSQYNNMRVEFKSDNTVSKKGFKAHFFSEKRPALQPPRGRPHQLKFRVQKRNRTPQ

[2] = target: T2, matrix metalloproteinase-2 (MMP-2), recombinant human (human, UniProt P08253 30-660); assay: SPR
T2 sequence (looked up): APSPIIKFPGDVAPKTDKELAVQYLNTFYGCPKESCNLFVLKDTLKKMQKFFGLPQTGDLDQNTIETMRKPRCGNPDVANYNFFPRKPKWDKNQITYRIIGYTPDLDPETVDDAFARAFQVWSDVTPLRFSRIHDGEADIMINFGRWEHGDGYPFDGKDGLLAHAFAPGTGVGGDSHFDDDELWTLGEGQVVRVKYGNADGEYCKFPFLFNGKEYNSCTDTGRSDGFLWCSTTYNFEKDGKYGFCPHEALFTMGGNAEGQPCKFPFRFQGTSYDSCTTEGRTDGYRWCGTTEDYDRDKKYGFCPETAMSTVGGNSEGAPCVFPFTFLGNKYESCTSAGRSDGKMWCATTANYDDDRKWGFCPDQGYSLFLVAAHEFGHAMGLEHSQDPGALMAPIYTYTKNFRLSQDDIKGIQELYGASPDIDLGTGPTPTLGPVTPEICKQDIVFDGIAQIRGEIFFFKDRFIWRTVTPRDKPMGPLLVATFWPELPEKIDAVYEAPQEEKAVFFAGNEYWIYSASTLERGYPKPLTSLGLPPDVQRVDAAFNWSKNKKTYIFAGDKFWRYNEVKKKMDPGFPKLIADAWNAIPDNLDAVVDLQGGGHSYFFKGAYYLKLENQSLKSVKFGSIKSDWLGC

KD of site 1 (two binding sites model) [1]: 129 ± 19 nM
KD of site 2 (two binding sites model) [1]: 5200 ± 500 nM
B1: procollagen C-proteinase enhancer-1 (PCPE-1), full-length, recombinant human (natural protein, UniProt Q15113 26-449, looked up)
chain: QTPNYTRPVFLCGGDVKGESGYVASEGFPNLYPPNKECIWTITVPEGQTVSLSFRVFDLELHPACRYDALEVFAGSGTSGQRLGRFCGTFRPAPLVAPGNQVTLRMTTDEGTGGRGFLLWYSGRATSGTEHQFCGGRLEKAQGTLTTPNWPESDYPPGISCSWHIIAPPDQVIALTFEKFDLEPDTYCRYDSVSVFNGAVSDDSRRLGKFCGDAVPGSISSEGNELLVQFVSDLSVTADGFSASYKTLPRGTAKEGQGPGPKRGTEPKVKLPPKSQPPEKTEESPSAPDAPTCPKQCRRTGTLQSNFCASSLVVTATVKSMVREPGEGLAVTVSLIGAYKTGGLDLPSPPTGASLKFYVPCKQCPPMKKGVSYLLMGQVEENRGPVLPPESFVVLHRPNQDQILTNLSKRKCPSQPVRAAASQD

Kd [2]: ≥ 1000 nM
B2: NTRshort (NTRs), short form of the netrin-like (NTR) domain of human PCPE-1 starting at Cys318 (domain or fragment, UniProt Q15113 318-449, looked up)
chain: CPKQCRRTGTLQSNFCASSLVVTATVKSMVREPGEGLAVTVSLIGAYKTGGLDLPSPPTGASLKFYVPCKQCPPMKKGVSYLLMGQVEENRGPVLPPESFVVLHRPNQDQILTNLSKRKCPSQPVRAAASQD
